Assay results reported in patent publication US20150344570A1 (published 2015).

biological target: T1, FcγRIIb extracellular domain with C-terminal His tag (human, UniProt P31994 43-217); test: SPR (Biacore), relative binding
T1 construct: extracellular domain; also called FcgRIIb; 2b
T1 sequence (looked up): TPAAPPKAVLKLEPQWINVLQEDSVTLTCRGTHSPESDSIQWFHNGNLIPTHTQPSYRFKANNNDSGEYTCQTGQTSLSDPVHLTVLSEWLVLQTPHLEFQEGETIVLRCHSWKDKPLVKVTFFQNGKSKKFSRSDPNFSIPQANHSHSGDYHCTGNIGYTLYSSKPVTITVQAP
Protocol: Analysis of interaction between objective antibody and the FcγR was carried out using Biacore T100 (GE Healthcare). HBS-EP+ (GE Healthcare) was used as the running buffer, and the measurement temperature was set to 25° C. Chips produced by immobilizing the antigen peptide by the amine coupling method to a Series S Sencor Chip CM5 (GE Healthcare), or alternatively, chips produced by allowing preliminarily biotinylated antigen peptides to interact with and immobilize onto a Series S Sensor Chip SA (certified) (GE Healthcare) were used. Antibodies of interest were captured onto an antigen peptide-immobilized chip, and allowed to interact to each FcγR diluted with running buffer. To regenerate and repeatedly use the chip, the antibodies captured on the chip were washed off by reacting 10 mM glycine-HCl, pH 1.5.

Binder | Ho/Con_2b
GpH7-B3 variant G237_08L/GpL16-k0 (antibody, human IgG1, kappa, also called Ho Ab G237_08L) heavy: not shown light: DIVMTQSPLSLPVTPGEPASISCQASESLVHSNRNTYLHWYLQKPGQSPQLLIYKVSNRFSGVPDRFSGSGSGTDFTLKISRVEAEDVGVYYCSQNTHVPPTFGQGTKVEIERTVAAPSVFIFPPSDEQLKSGTASVVCLLNNFYPREAKVQWKVDNALQSGNSQESVTEQDSKDSTYSLSSTLTLSKADYEKHKVYACEVTHQGLSSPVTKSFNRGEC | 49.4 % of HoCon Ab GpH7-B3/GpL16-k0
GpH7-B3 variant G237_09D/GpL16-k0 (antibody, human IgG1, kappa, also called Ho Ab G237_09D) heavy: not shown light: DIVMTQSPLSLPVTPGEPASISCQASESLVHSNRNTYLHWYLQKPGQSPQLLIYKVSNRFSGVPDRFSGSGSGTDFTLKISRVEAEDVGVYYCSQNTHVPPTFGQGTKVEIERTVAAPSVFIFPPSDEQLKSGTASVVCLLNNFYPREAKVQWKVDNALQSGNSQESVTEQDSKDSTYSLSSTLTLSKADYEKHKVYACEVTHQGLSSPVTKSFNRGEC | 92.9 % of HoCon Ab GpH7-B3/GpL16-k0
GpH7-B3 variant G237_10E/GpL16-k0 (antibody, human IgG1, kappa, also called Ho Ab G237_10E) heavy: not shown light: DIVMTQSPLSLPVTPGEPASISCQASESLVHSNRNTYLHWYLQKPGQSPQLLIYKVSNRFSGVPDRFSGSGSGTDFTLKISRVEAEDVGVYYCSQNTHVPPTFGQGTKVEIERTVAAPSVFIFPPSDEQLKSGTASVVCLLNNFYPREAKVQWKVDNALQSGNSQESVTEQDSKDSTYSLSSTLTLSKADYEKHKVYACEVTHQGLSSPVTKSFNRGEC | 17.8 % of HoCon Ab GpH7-B3/GpL16-k0
GpH7-B3 variant G237_13S/GpL16-k0 (antibody, human IgG1, kappa, also called Ho Ab G237_13S) heavy: not shown light: DIVMTQSPLSLPVTPGEPASISCQASESLVHSNRNTYLHWYLQKPGQSPQLLIYKVSNRFSGVPDRFSGSGSGTDFTLKISRVEAEDVGVYYCSQNTHVPPTFGQGTKVEIERTVAAPSVFIFPPSDEQLKSGTASVVCLLNNFYPREAKVQWKVDNALQSGNSQESVTEQDSKDSTYSLSSTLTLSKADYEKHKVYACEVTHQGLSSPVTKSFNRGEC | 25.7 % of HoCon Ab GpH7-B3/GpL16-k0
GpH7-B3 variant G237_15Y/GpL16-k0 (antibody, human IgG1, kappa, also called Ho Ab G237_15Y) heavy: not shown light: DIVMTQSPLSLPVTPGEPASISCQASESLVHSNRNTYLHWYLQKPGQSPQLLIYKVSNRFSGVPDRFSGSGSGTDFTLKISRVEAEDVGVYYCSQNTHVPPTFGQGTKVEIERTVAAPSVFIFPPSDEQLKSGTASVVCLLNNFYPREAKVQWKVDNALQSGNSQESVTEQDSKDSTYSLSSTLTLSKADYEKHKVYACEVTHQGLSSPVTKSFNRGEC | 83.1 % of HoCon Ab GpH7-B3/GpL16-k0
GpH7-B3 variant G237_18N/GpL16-k0 (antibody, human IgG1, kappa, also called Ho Ab G237_18N) heavy: not shown light: DIVMTQSPLSLPVTPGEPASISCQASESLVHSNRNTYLHWYLQKPGQSPQLLIYKVSNRFSGVPDRFSGSGSGTDFTLKISRVEAEDVGVYYCSQNTHVPPTFGQGTKVEIERTVAAPSVFIFPPSDEQLKSGTASVVCLLNNFYPREAKVQWKVDNALQSGNSQESVTEQDSKDSTYSLSSTLTLSKADYEKHKVYACEVTHQGLSSPVTKSFNRGEC | 63.9 % of HoCon Ab GpH7-B3/GpL16-k0
GpH7-B3 variant G237_19Q/GpL16-k0 (antibody, human IgG1, kappa, also called Ho Ab G237_19Q) heavy: not shown light: DIVMTQSPLSLPVTPGEPASISCQASESLVHSNRNTYLHWYLQKPGQSPQLLIYKVSNRFSGVPDRFSGSGSGTDFTLKISRVEAEDVGVYYCSQNTHVPPTFGQGTKVEIERTVAAPSVFIFPPSDEQLKSGTASVVCLLNNFYPREAKVQWKVDNALQSGNSQESVTEQDSKDSTYSLSSTLTLSKADYEKHKVYACEVTHQGLSSPVTKSFNRGEC | 5.3 % of HoCon Ab GpH7-B3/GpL16-k0
GpH7-B3 variant G237_20W/GpL16-k0 (antibody, human IgG1, kappa, also called Ho Ab G237_20W) heavy: not shown light: DIVMTQSPLSLPVTPGEPASISCQASESLVHSNRNTYLHWYLQKPGQSPQLLIYKVSNRFSGVPDRFSGSGSGTDFTLKISRVEAEDVGVYYCSQNTHVPPTFGQGTKVEIERTVAAPSVFIFPPSDEQLKSGTASVVCLLNNFYPREAKVQWKVDNALQSGNSQESVTEQDSKDSTYSLSSTLTLSKADYEKHKVYACEVTHQGLSSPVTKSFNRGEC | 166 % of HoCon Ab GpH7-B3/GpL16-k0
GpH7-B3 variant H268_03V/GpL16-k0 (antibody, human IgG1, kappa, also called Ho Ab H268_03V) heavy: not shown light: DIVMTQSPLSLPVTPGEPASISCQASESLVHSNRNTYLHWYLQKPGQSPQLLIYKVSNRFSGVPDRFSGSGSGTDFTLKISRVEAEDVGVYYCSQNTHVPPTFGQGTKVEIERTVAAPSVFIFPPSDEQLKSGTASVVCLLNNFYPREAKVQWKVDNALQSGNSQESVTEQDSKDSTYSLSSTLTLSKADYEKHKVYACEVTHQGLSSPVTKSFNRGEC | 109 % of HoCon Ab GpH7-B3/GpL16-k0
GpH7-B3 variant H268_05P/GpL16-k0 (antibody, human IgG1, kappa, also called Ho Ab H268_05P) heavy: not shown light: DIVMTQSPLSLPVTPGEPASISCQASESLVHSNRNTYLHWYLQKPGQSPQLLIYKVSNRFSGVPDRFSGSGSGTDFTLKISRVEAEDVGVYYCSQNTHVPPTFGQGTKVEIERTVAAPSVFIFPPSDEQLKSGTASVVCLLNNFYPREAKVQWKVDNALQSGNSQESVTEQDSKDSTYSLSSTLTLSKADYEKHKVYACEVTHQGLSSPVTKSFNRGEC | 109 % of HoCon Ab GpH7-B3/GpL16-k0
GpH7-B3 variant H268_15Y/GpL16-k0 (antibody, human IgG1, kappa, also called Ho Ab H268_15Y) heavy: not shown light: DIVMTQSPLSLPVTPGEPASISCQASESLVHSNRNTYLHWYLQKPGQSPQLLIYKVSNRFSGVPDRFSGSGSGTDFTLKISRVEAEDVGVYYCSQNTHVPPTFGQGTKVEIERTVAAPSVFIFPPSDEQLKSGTASVVCLLNNFYPREAKVQWKVDNALQSGNSQESVTEQDSKDSTYSLSSTLTLSKADYEKHKVYACEVTHQGLSSPVTKSFNRGEC | 104 % of HoCon Ab GpH7-B3/GpL16-k0
GpH7-B3 variant I332_02A/GpL16-k0 (antibody, human IgG1, kappa, also called Ho Ab I332_02A) heavy: not shown light: DIVMTQSPLSLPVTPGEPASISCQASESLVHSNRNTYLHWYLQKPGQSPQLLIYKVSNRFSGVPDRFSGSGSGTDFTLKISRVEAEDVGVYYCSQNTHVPPTFGQGTKVEIERTVAAPSVFIFPPSDEQLKSGTASVVCLLNNFYPREAKVQWKVDNALQSGNSQESVTEQDSKDSTYSLSSTLTLSKADYEKHKVYACEVTHQGLSSPVTKSFNRGEC | 81.8 % of HoCon Ab GpH7-B3/GpL16-k0
GpH7-B3 variant I332_14T/GpL16-k0 (antibody, human IgG1, kappa, also called Ho Ab I332_14T) heavy: not shown light: DIVMTQSPLSLPVTPGEPASISCQASESLVHSNRNTYLHWYLQKPGQSPQLLIYKVSNRFSGVPDRFSGSGSGTDFTLKISRVEAEDVGVYYCSQNTHVPPTFGQGTKVEIERTVAAPSVFIFPPSDEQLKSGTASVVCLLNNFYPREAKVQWKVDNALQSGNSQESVTEQDSKDSTYSLSSTLTLSKADYEKHKVYACEVTHQGLSSPVTKSFNRGEC | 106 % of HoCon Ab GpH7-B3/GpL16-k0
GpH7-B3 variant I336_06M/GpL16-k0 (antibody, human IgG1, kappa, also called Ho Ab I336_06M) heavy: not shown light: DIVMTQSPLSLPVTPGEPASISCQASESLVHSNRNTYLHWYLQKPGQSPQLLIYKVSNRFSGVPDRFSGSGSGTDFTLKISRVEAEDVGVYYCSQNTHVPPTFGQGTKVEIERTVAAPSVFIFPPSDEQLKSGTASVVCLLNNFYPREAKVQWKVDNALQSGNSQESVTEQDSKDSTYSLSSTLTLSKADYEKHKVYACEVTHQGLSSPVTKSFNRGEC | 90.1 % of HoCon Ab GpH7-B3/GpL16-k0
GpH7-B3 variant I336_08L/GpL16-k0 (antibody, human IgG1, kappa, also called Ho Ab I336_08L) heavy: not shown light: DIVMTQSPLSLPVTPGEPASISCQASESLVHSNRNTYLHWYLQKPGQSPQLLIYKVSNRFSGVPDRFSGSGSGTDFTLKISRVEAEDVGVYYCSQNTHVPPTFGQGTKVEIERTVAAPSVFIFPPSDEQLKSGTASVVCLLNNFYPREAKVQWKVDNALQSGNSQESVTEQDSKDSTYSLSSTLTLSKADYEKHKVYACEVTHQGLSSPVTKSFNRGEC | 103 % of HoCon Ab GpH7-B3/GpL16-k0
GpH7-B3 variant K326_07I/GpL16-k0 (antibody, human IgG1, kappa, also called Ho Ab K326_07I) heavy: not shown light: DIVMTQSPLSLPVTPGEPASISCQASESLVHSNRNTYLHWYLQKPGQSPQLLIYKVSNRFSGVPDRFSGSGSGTDFTLKISRVEAEDVGVYYCSQNTHVPPTFGQGTKVEIERTVAAPSVFIFPPSDEQLKSGTASVVCLLNNFYPREAKVQWKVDNALQSGNSQESVTEQDSKDSTYSLSSTLTLSKADYEKHKVYACEVTHQGLSSPVTKSFNRGEC | 170 % of HoCon Ab GpH7-B3/GpL16-k0
GpH7-B3 variant K326_08L/GpL16-k0 (antibody, human IgG1, kappa, also called Ho Ab K326_08L) heavy: not shown light: DIVMTQSPLSLPVTPGEPASISCQASESLVHSNRNTYLHWYLQKPGQSPQLLIYKVSNRFSGVPDRFSGSGSGTDFTLKISRVEAEDVGVYYCSQNTHVPPTFGQGTKVEIERTVAAPSVFIFPPSDEQLKSGTASVVCLLNNFYPREAKVQWKVDNALQSGNSQESVTEQDSKDSTYSLSSTLTLSKADYEKHKVYACEVTHQGLSSPVTKSFNRGEC | 168 % of HoCon Ab GpH7-B3/GpL16-k0
GpH7-B3 variant K326_20W/GpL16-k0 (antibody, human IgG1, kappa, also called Ho Ab K326_20W) heavy: not shown light: DIVMTQSPLSLPVTPGEPASISCQASESLVHSNRNTYLHWYLQKPGQSPQLLIYKVSNRFSGVPDRFSGSGSGTDFTLKISRVEAEDVGVYYCSQNTHVPPTFGQGTKVEIERTVAAPSVFIFPPSDEQLKSGTASVVCLLNNFYPREAKVQWKVDNALQSGNSQESVTEQDSKDSTYSLSSTLTLSKADYEKHKVYACEVTHQGLSSPVTKSFNRGEC | 132 % of HoCon Ab GpH7-B3/GpL16-k0
GpH7-B3 variant L234_09D/GpL16-k0 (antibody, human IgG1, kappa, also called Ho Ab L234_09D) heavy: not shown light: DIVMTQSPLSLPVTPGEPASISCQASESLVHSNRNTYLHWYLQKPGQSPQLLIYKVSNRFSGVPDRFSGSGSGTDFTLKISRVEAEDVGVYYCSQNTHVPPTFGQGTKVEIERTVAAPSVFIFPPSDEQLKSGTASVVCLLNNFYPREAKVQWKVDNALQSGNSQESVTEQDSKDSTYSLSSTLTLSKADYEKHKVYACEVTHQGLSSPVTKSFNRGEC | 68.5 % of HoCon Ab GpH7-B3/GpL16-k0
GpH7-B3 variant L234_10E/GpL16-k0 (antibody, human IgG1, kappa, also called Ho Ab L234_10E) heavy: not shown light: DIVMTQSPLSLPVTPGEPASISCQASESLVHSNRNTYLHWYLQKPGQSPQLLIYKVSNRFSGVPDRFSGSGSGTDFTLKISRVEAEDVGVYYCSQNTHVPPTFGQGTKVEIERTVAAPSVFIFPPSDEQLKSGTASVVCLLNNFYPREAKVQWKVDNALQSGNSQESVTEQDSKDSTYSLSSTLTLSKADYEKHKVYACEVTHQGLSSPVTKSFNRGEC | 54.9 % of HoCon Ab GpH7-B3/GpL16-k0
GpH7-B3 variant L234_20W/GpL16-k0 (antibody, human IgG1, kappa, also called Ho Ab L234_20W) heavy: not shown light: DIVMTQSPLSLPVTPGEPASISCQASESLVHSNRNTYLHWYLQKPGQSPQLLIYKVSNRFSGVPDRFSGSGSGTDFTLKISRVEAEDVGVYYCSQNTHVPPTFGQGTKVEIERTVAAPSVFIFPPSDEQLKSGTASVVCLLNNFYPREAKVQWKVDNALQSGNSQESVTEQDSKDSTYSLSSTLTLSKADYEKHKVYACEVTHQGLSSPVTKSFNRGEC | 80.6 % of HoCon Ab GpH7-B3/GpL16-k0
